Data set [1] is described as follows: Kinetic parameters of LAD from various source organisms. It counts as biochemical. The following applies: for Specific activity: purified N. crassa LAD. The protocol: Initial rates were determined using a Varian Cary 100 Bio UV-visible spectrophotometer (Varian) at 25° C. in 50 mM Tris (pH 8.0). […] Kinetic measurements with substrate L-arabinitol and cofactor NAD^+ were taken in a 5-by-5 matrix format, with substrate and cofactor concentrations varied from below their Km to 10-fold higher than their Km. The kinetic data were analyzed with a modified version of Cleland's program (Cleland, W. W. (1979) Statistical analysis of enzyme kinetic data, Methods Enzymol 63, 103-138.). Vmax and Km for both L-arabinitol and NAD^+ were obtained by fitting the data to a sequential ordered mechanism with NAD^+ binding first, based on the proposed mechanism for sorbitol dehydrogenase (Lindstad et al. (1992) The kinetic mechanism of sheep liver sorbitol dehydrogenase, Eur J Biochem 210, 641-647.) v=VmaxAB/(KiaKB+KAB+KBA+AB) (EQ. 1)

The nature of data set [2]: F59 mutant kinetic analysis, substrate L-arabinitol. The following applies: 25° C., 50 mM Tris pH 8.0, NAD+ 2 mM. The class given is biochemical. The protocol: (§1) Initial rates were determined using a Varian Cary 100 Bio UV-visible spectrophotometer (Varian) at 25° C. in 50 mM Tris (pH 8.0). […] This is the first reported detection of NADP^+ utilization by LAD, although it is still considered a strongly NAD^+-dependent enzyme. Kinetic measurements with substrate L-arabinitol and cofactor NAD^+ were taken in a 5-by-5 matrix format, with substrate and cofactor concentrations varied from below their Km to 10-fold higher than their Km. The kinetic data were analyzed with a modified version of Cleland's program (Cleland, W. W. (1979) Statistical analysis of enzyme kinetic data, Methods Enzymol 63, 103-138.). Vmax and Km for both L-arabinitol and NAD^+ were obtained by fitting the data to a sequential ordered mechanism with NAD^+ binding first, based on the proposed mechanism for sorbitol dehydrogenase (Lindstad et al. (1992) The kinetic mechanism of sheep liver sorbitol dehydrogenase, Eur J Biochem 210, 641-647.) v=VmaxAB/(KiaKB+KAB+KBA+AB) (EQ. 1)
(§2) Activity assays were run for three mutants of N. crassa LAD (F59A, F59S, and F59Y) to study the effect of mutation of this active site, putative substrate binding residue homologous to tyrosine in other SDHs. […]

A short description of data set [3]: F59 mutant kinetic analysis, substrate xylitol. The following applies: 25° C., 50 mM Tris pH 8.0, NAD+ 2 mM. The class given is biochemical. The protocol: as §1, §2
The nature of data set [4]: F59 mutant kinetic analysis, substrate adonitol. The class given is biochemical. The following applies: 25° C., 50 mM Tris pH 8.0, NAD+ 2 mM. The protocol: as §1, §2
Data set [5] in a line: Temperature dependence of LAD activity. It counts as biochemical. The protocol:
The optimal temperature of activity was determined by assaying LAD activities at temperatures ranging from 12 to 65° C. […] (FIG. 2A). At higher temperatures, the enzyme inactivates rapidly, and at lowered temperatures, the rate increases with temperature according to the Arrhenius equation. Utilizing the Arrhenius equation to fit the data from 12 to 30° C., the energy of activation for L-arabinitol oxidation by N. crassa LAD was determined to be 49 kJ/mol. […] Thermal inactivation of N. crassa LAD was studied by incubating at 50° C. in 50 mM Tris (pH 8.0), with samples removed at various times and assayed for activity in saturating substrate conditions.

A short description of data set [6]: Thermal inactivation and storage stability of LAD. The class given is physicochemical.
Data set [7] in a line: pH rate profile of LAD activity. The following applies: universal buffer, 2 mM NAD+, 200 mM L-arabinitol. It counts as biochemical. The protocol:
Activity was measured at pH values between 7.0 and 11.0 under saturating concentrations of NAD+ (2 mM) and L-arabinitol (200 mM) in a universal buffer (50 mM morpholineethanesulfonic acid (MES)/50 mM Tris/50 mM glycine). The pH range for N. crassa LAD activity was large, with >25% of the activity occurring with pH values of 7.0 to 11.0 (FIG. 2C). The pH optimum was around pH 9.5, and >60% of the activity remained in the pH span from 8.0 to 10.5.

The nature of data set [8]: Effect of GST-tag removal on specific activity. The class given is biochemical. The settings on record: 4° C. overnight. From the text:
N. crassa RNA purification, reverse-transcription PCR, cloning, and N. crassa LAD expression are described in this example. […] The reverse transcription-PCR product was subcloned into pGEX-4T-3 vector (Amersham Biosciences) using EcoRI and NotI restriction sites and was transformed into Escherichia coli BL21(DE3). This construct (pGEX-lad1) encoded N. crassa LAD as an N-terminal glutathione S-transferase (GST)-tagged fusion with a thrombin cleavage site. Cell lysates of isopropyl-β-D-thiogalactopyranoside (IPTG) induced cultures of these cells were prepared, analyzed by SDS-PAGE, and assayed for LAD activities. The construct produced soluble GST-tagged N. crassa LAD at ˜16% of the total soluble cellular proteins (FIG. 1), which was then purified in a single step with a GST-Bind kit (Novagen) according to manufacturer's protocol. […] Protein concentrations were determined by the Bradford method and by using an estimated extinction coefficient (San Diego Supercomputer Center Biology Workbench) of 35.3 mM-1 cm-1 at 280 nm with similar results. The purity of the protein was analyzed by an SDS-PAGE gel stained with Coomassie brilliant blue (FIG. 1). […]
To determine the effect of removal of the GST-tag, the purified LAD was incubated with and without thrombin at 4° C. overnight. […] It was determined that removal of the GST-tag enhanced activity by about 65%. […]

Some results are limits rather than exact numbers.

The values below come from US8114638B2, “Arabinitol dehydrogenase from Neurospora crassa” (The Board of Trustees of the University of Illinois, priority 2007, dated 2012).

Turning to “N. crassa LAD: NAD+-dependent L-arabinitol 4-dehydrogenase from Neurospora crassa, 363 residues, SEQ ID NO: 1, recombinantly expressed in E. coli”, the kcat in data set [1] (N. crassa LAD) is on record as 1,206 min^−1. In addition, the Km in data set [1] (N. crassa LAD, read-out: Km,L-arabinitol) came out at 16 mM; in data set [1] (N. crassa LAD, read-out: Km,NAD+) it was 0.174 mM; in data set [4] (read-out: Km (mean ± SD)), 35 ± 3 mM. For the same substance, in data set [1] (greater), the “specific activity relative to H. jecorina LAD purified from S. cerevisiae heterologous expression” value was about 20 fold. For the same substance, the Specific activity entry in data set [1] is listed as “about 31 U/mg”; in data set [1] (listed as N. crassa) it was 31 U/mg. Also, the results for the “kcat (mean ± SD)” value in data set [2], in data set [3] and in data set [4] were 1,210 ± 30 min^−1, 16.2 ± 0.667 s⁻¹ and 1,080 ± 30 min^−1, respectively. Also, the “energy of activation for L-arabinitol oxidation” value in data set [5] (Arrhenius fit of data from 12 to 30° C.) amounted to 11.7 kcal/mol. Besides, the “optimum temperature of activity” value in data set [5] (assayed from 12 to 65° C., 200 mM L-arabinitol, 2 mM NAD+) is 45-55 °C. In addition, the “stability to repeated freezing (in words)” value in data set [6] was “quite stable and does not markedly lose activity when frozen repeatedly”. For the same substance, the activity retained in data set [6] (45° C., after 4 hr) is on record as about 60%. In addition, the “storage stability (in words)” value in data set [6] (room temperature and 4° C.) is “retained activity at room temperature for longer than one month and at 4 °C for several months”. Further, the “activity at pH values of 7.0 to 11.0” value in data set [7] was over 25%. For the same substance, the “activity remaining in the pH span from 8.0 to 10.5” value in data set [7] was over 60%. In data set [7], this substance showed a pH optimum of about 9.5 pH. Besides, the “increase of specific activity of thrombin-cleaved LAD over GST-tagged LAD” value in data set [8] is recorded as “about 65%”.
